# Laboratory results taken from patent US20240301052A1 (LANOVA MEDICINES DEVELOPMENT, published 2024).
# T1: rat SLC34A2 (rat, UniProt Q9JJ09 1-695)
# T1 construct: whole, on cells
# T1 sequence (looked up): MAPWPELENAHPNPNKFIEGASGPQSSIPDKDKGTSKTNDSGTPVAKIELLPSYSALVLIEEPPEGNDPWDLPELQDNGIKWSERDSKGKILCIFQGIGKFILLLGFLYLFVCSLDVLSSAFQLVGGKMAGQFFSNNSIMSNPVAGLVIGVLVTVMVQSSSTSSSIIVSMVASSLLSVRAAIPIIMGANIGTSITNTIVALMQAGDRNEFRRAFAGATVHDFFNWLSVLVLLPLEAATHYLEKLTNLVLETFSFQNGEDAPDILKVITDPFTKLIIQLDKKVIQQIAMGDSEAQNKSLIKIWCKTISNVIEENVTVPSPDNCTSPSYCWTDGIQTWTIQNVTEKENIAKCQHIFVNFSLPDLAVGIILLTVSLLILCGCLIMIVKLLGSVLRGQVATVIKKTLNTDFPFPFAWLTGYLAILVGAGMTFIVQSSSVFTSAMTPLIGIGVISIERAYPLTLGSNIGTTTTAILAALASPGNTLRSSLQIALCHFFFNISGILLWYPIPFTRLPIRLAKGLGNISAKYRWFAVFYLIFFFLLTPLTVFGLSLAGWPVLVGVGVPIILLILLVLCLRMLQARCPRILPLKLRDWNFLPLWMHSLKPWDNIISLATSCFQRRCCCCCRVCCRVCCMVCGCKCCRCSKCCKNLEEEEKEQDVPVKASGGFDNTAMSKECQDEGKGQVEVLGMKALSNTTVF
# Target: T1, rat SLC34A2
# Assay: FACS, HEK293/Rat SLC34A2 cells
binder,measurement,value
"XMT-1536 (antibody, INN chains, looked up, V domains shown, rilsodotin auristatin payload) VH: QVQLVQSGAEVVKPGASVKMSCKASGYTFTGYNIHWVKQAPGQGLEWIGAIYPGNGDTSYKQKFRGRATLTADTSTSTVYMELSSLRSEDSAVYYCARGETARATFAYWGQGTLVTVSS VL: DIQMTQSPSSLSASVGDRVTITCSASQDIGNFLNWYQQKPGKTVKVLIYYTSSLYSGVPSRFSGSGSGTDYTLTISSLQPEDFATYYCQQYSKLPLTFGQGTKLELK",EC50,4.48 nM
